# Patent US20240392004A1 (IMMUNOWAKE, published 2024)
# Substitutions are numbered along the chain they refer to. Numbers in names are those of the source.
# T1: human IL-2 receptor (IL-2Rα, IL-2Rβ, IL-2Rγ) (human, UniProt P01589 22-272; P14784 27-551; P31785 23-369)
# T1 sequence (looked up) 1: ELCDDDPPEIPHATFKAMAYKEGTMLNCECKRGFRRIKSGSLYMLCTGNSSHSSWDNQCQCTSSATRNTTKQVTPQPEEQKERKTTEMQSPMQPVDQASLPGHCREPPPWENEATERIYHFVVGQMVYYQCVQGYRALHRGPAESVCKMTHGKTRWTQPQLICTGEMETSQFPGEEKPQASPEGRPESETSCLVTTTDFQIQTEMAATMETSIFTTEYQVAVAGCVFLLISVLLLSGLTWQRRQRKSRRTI
# T1 sequence (looked up) 2: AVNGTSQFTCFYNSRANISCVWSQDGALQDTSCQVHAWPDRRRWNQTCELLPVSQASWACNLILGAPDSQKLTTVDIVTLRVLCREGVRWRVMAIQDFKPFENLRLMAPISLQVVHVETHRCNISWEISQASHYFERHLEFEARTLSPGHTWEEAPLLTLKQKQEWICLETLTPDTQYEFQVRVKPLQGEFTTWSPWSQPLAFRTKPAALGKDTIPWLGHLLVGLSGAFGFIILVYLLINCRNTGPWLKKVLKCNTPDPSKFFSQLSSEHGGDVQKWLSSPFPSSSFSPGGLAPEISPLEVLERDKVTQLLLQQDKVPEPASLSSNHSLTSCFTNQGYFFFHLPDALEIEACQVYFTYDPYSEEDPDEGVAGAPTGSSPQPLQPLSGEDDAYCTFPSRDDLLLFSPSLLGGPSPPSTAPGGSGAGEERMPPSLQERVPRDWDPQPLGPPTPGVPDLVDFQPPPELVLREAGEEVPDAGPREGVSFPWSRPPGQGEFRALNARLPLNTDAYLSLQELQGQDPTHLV
# T1 sequence (looked up) 3: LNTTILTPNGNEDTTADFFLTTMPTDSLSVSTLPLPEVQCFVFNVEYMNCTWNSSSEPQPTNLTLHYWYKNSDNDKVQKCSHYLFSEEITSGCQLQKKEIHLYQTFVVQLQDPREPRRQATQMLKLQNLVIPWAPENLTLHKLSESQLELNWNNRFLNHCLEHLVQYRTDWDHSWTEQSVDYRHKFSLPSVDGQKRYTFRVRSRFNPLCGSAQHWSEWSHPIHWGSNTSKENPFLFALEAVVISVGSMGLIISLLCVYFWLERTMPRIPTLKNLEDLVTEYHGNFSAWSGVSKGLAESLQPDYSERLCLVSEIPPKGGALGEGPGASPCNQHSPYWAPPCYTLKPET
# T2: mouse PD-1 (mouse, UniProt Q02242 25-167, limits assumed)
# T2 construct: also called mPD-1
# T2 sequence (looked up): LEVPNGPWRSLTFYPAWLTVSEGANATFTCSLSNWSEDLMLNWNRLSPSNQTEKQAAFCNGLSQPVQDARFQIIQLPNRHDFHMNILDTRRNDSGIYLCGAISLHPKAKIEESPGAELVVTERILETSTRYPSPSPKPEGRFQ
# B1: PD-L1(mut2)-Fc, I54Q/E58M/R113T/M115L/S117A/G119K (Fc fusion)
# chain 1: FTVTVPKDLYVVEYGSNMTIECKFPVEKQLDLAALQVYWMMEDKNIIQFVHGEEDLKVQHSSYRQRARLLKDQLSLGNAALQITDVKLQDAGVYTCLIAYKGADYKRITVKVNAPYNKINQRILVVDPVTSEHELTCQAEGYPKAEVIWTSSDHQVLSGKTTTTNSKREEKLFNVTSTLRINTTTNEIFYCTFRRLDPEENHTAELVIPELPLAHPPNERGGGGSGGGDKTHTCPPCPAPEDEGGPSVFLFPPKPKDTLMISRTPEVTCVVVDVSHEDPEVKFNWYVDGVEVHNAKTKPREEQYNSTYRVVSVLTVLHQDWLNGKEYKCKVSNKALPAPIEKTISKAKGQPREPQVYVYPPSREEMTKNQVSLTCLVKGFYPSDIAVEWESNGQPENNYKTTPPVLDEDGSFALVSKLTVDKSRWQQGNVFSCSVMHEALHNHYTQKSLSLSPGK
# chain 2: B1 chain 1 with D242K, E243K, Y359L, T374L, N398R, K400M, T402W, E408S, A413F, V415Y
# B2: PD-L1(mut7)-Fc, I54Q/E58M/R113T/M115L/S117A (Fc fusion)
# chain 1: B1 chain 1 with K101G
# chain 2: FTVTVPKDLYVVEYGSNMTIECKFPVEKQLDLAALQVYWMMEDKNIIQFVHGEEDLKVQHSSYRQRARLLKDQLSLGNAALQITDVKLQDAGVYTCLIAYGGADYKRITVKVNAPYNKINQRILVVDPVTSEHELTCQAEGYPKAEVIWTSSDHQVLSGKTTTTNSKREEKLFNVTSTLRINTTTNEIFYCTFRRLDPEENHTAELVIPELPLAHPPNERGGGGSGGGDKTHTCPPCPAPEKKGGPSVFLFPPKPKDTLMISRTPEVTCVVVDVSHEDPEVKFNWYVDGVEVHNAKTKPREEQYNSTYRVVSVLTVLHQDWLNGKEYKCKVSNKALPAPIEKTISKAKGQPREPQVYVLPPSREEMTKNQVSLLCLVKGFYPSDIAVEWESNGQPENRYMTWPPVLDSDGSFFLYSKLTVDKSRWQQGNVFSCSVMHEALHNHYTQKSLSLSPGK
# B3: PD-L1(mut3)-Fc, I54Q/R113T/M115L/S117A/G119K (Fc fusion)
# chain 1: FTVTVPKDLYVVEYGSNMTIECKFPVEKQLDLAALQVYWEMEDKNIIQFVHGEEDLKVQHSSYRQRARLLKDQLSLGNAALQITDVKLQDAGVYTCLIAYKGADYKRITVKVNAPYNKINQRILVVDPVTSEHELTCQAEGYPKAEVIWTSSDHQVLSGKTTTTNSKREEKLFNVTSTLRINTTTNEIFYCTFRRLDPEENHTAELVIPELPLAHPPNERDKTHTCPPCPAPEDEGGPSVFLFPPKPKDTLMISRTPEVTCVVVDVSHEDPEVKFNWYVDGVEVHNAKTKPREEQYNSTYRVVSVLTVLHQDWLNGKEYKCKVSNKALPAPIEKTISKAKGQPREPQVYVYPPSREEMTKNQVSLTCLVKGFYPSDIAVEWESNGQPENNYKTTPPVLDEDGSFALVSKLTVDKSRWQQGNVFSCSVMHEALHNHYTQKSLSLSPGK
# chain 2: B3 chain 1 with D234K, E235K, Y351L, T366L, N390R, K392M, T394W, E400S, A405F, V407Y
# B4: PD-L1(mut5)-Fc, I54Q/E58M/R113T/S117A/G119K (Fc fusion)
# chain 1: B3 chain 1 with E40M, L97M
# chain 2: FTVTVPKDLYVVEYGSNMTIECKFPVEKQLDLAALQVYWMMEDKNIIQFVHGEEDLKVQHSSYRQRARLLKDQLSLGNAALQITDVKLQDAGVYTCMIAYKGADYKRITVKVNAPYNKINQRILVVDPVTSEHELTCQAEGYPKAEVIWTSSDHQVLSGKTTTTNSKREEKLFNVTSTLRINTTTNEIFYCTFRRLDPEENHTAELVIPELPLAHPPNERDKTHTCPPCPAPEKKGGPSVFLFPPKPKDTLMISRTPEVTCVVVDVSHEDPEVKFNWYVDGVEVHNAKTKPREEQYNSTYRVVSVLTVLHQDWLNGKEYKCKVSNKALPAPIEKTISKAKGQPREPQVYVLPPSREEMTKNQVSLLCLVKGFYPSDIAVEWESNGQPENRYMTWPPVLDSDGSFFLYSKLTVDKSRWQQGNVFSCSVMHEALHNHYTQKSLSLSPGK
# B5: PD-L1(mut4)-Fc, I54Q/E58M/M115L/S117A/G119K (Fc fusion)
# chain 1: B3 chain 1 with E40M, T95R
# chain 2: B4 chain 2 with T95R, M97L
# B6: PD-L1(mut6)-Fc, I54Q/E58M/R113T/M115L/G119K (Fc fusion)
# chain 1: B3 chain 1 with E40M, A99S
# chain 2: B4 chain 2 with M97L, A99S
# Target: human PD-1 on cells (HEK-PD-1 reporter cells; activated PBMC) (human, UniProt Q15116 25-288)
# Assay: cell-based or functional assay
# human PD-1 on cells (HEK-PD-1 reporter cells; activated PBMC), sequence (Q15116 25-288): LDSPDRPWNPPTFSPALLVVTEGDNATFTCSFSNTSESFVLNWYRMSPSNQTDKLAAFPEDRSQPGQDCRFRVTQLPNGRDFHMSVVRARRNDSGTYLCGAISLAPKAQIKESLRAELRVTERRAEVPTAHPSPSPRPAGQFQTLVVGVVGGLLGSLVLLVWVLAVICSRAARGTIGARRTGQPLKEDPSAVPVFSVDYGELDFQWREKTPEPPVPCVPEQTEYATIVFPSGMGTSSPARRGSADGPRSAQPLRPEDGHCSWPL
row,"IL-2 signal transduction, HEK-IL-2-PD-1 [%]",Binder
1,< 0.1,B1

# Target: T1, human IL-2 receptor (IL-2Rα, IL-2Rβ, …)
# Assay: cell-based or functional assay
row,"IL-2 signal transduction, HEK-IL-2 [%]",Binder
1,< 0.1,B1

# Target: T3, human PD-1 (human, UniProt Q15116 25-167, limits assumed)
# T3 construct: also called hPD-1
# Assay: PD-L1-Fc format, calibrated on PD-L1(wt)-Fc, method not stated
# T3 sequence (Q15116 25-167 limits assumed): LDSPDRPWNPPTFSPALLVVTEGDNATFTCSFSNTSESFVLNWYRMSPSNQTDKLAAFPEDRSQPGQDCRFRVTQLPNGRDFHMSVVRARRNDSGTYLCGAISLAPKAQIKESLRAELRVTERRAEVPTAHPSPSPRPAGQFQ
row,Kd [nM],Binder
1,150,B1
2,98,B2
3,910,B3
4,1200,B4
5,1090,B5
6,555,B6

# Target: T2, mouse PD-1
# Assay: as above
row,Kd [nM],Binder
1,120,B1
2,110,B2
3,820,B3
4,1100,B4
5,980,B5
6,420,B6
